Reference: patent WO2010028796A1 (dated 2010)

Legend:
[1] = biological target: human CD4 (human, UniProt P01730 26-458); experiment: cell-based or functional assay
[2] = biological target: human CCR5 (human, UniProt P51681 1-352); experiment: cell-based or functional assay
Sequence of human CCR5 (P51681 whole entry): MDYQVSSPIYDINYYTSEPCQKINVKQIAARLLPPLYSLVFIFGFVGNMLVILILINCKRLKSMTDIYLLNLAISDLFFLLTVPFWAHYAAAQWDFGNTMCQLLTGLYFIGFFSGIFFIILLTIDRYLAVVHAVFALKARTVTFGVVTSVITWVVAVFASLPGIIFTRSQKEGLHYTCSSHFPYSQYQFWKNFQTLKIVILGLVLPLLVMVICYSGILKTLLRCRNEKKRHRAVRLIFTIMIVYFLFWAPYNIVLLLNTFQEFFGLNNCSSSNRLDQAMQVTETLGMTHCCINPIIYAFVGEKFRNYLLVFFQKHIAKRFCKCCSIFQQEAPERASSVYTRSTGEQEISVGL

B1: HNN-1000-1000 (antibody, V domains shown)
VH: QVQLQQSGPEVVKPGASVKMSCKASGYTFTSYVIHWVRQKPGQGLDWIGYINPYNDGTDYDEKFKGKATLTSDTSTSTAYMELSSLRSEDTAVYYCAREKDNYATGAWFAYWGQGTLVTVSS
VL: DIVMTQSPDSLAVSLGERVTMNCKSSQSLLYSTNQKNYLAWYQQKPGQSPKLLIYWASTRESGVPDRFSGSGSGTDFTLTISSVQAEDVAVYYCQQYYSYRTFGGGTKLEIK
IC50, PBMC antiviral assay (HIV-1 NLBal, p24 ELISA) [1]: 348 pM

B2: BNN-1000-1000 (antibody, human IgG1, kappa, L234A L235A, V domains shown)
VH: QVQLQESGPGLVKPSQSLSITCTVSGFPLGAFGVHWVRQSPGKGLEWLGVIWKGGNTDYNAAFKSRLRITKDNSKSQVFFRMNSLQTDDTATYYCAKVNLADAMDYWGQGTTVTVSS
VL: DIQMTQSPASLSASVGETVTITCRASGNAHGYLAWYQQKPGKAPKLLIYNTKTLAEGVPSRFSGSGSGTQFSLKINSAQPEDFGNYYCQHHYDLPRTFGGGTKVEIKR
IC50, PBMC antiviral assay (HIV-1 NLBal, p24 ELISA) [2]: 1080 pM
